Experimental findings from patent US20200171163A1 (Daiichi Sankyo, published 2020) are described below.

Assay [1] concerns the target T1, EC5 deletion mutant of human CDH6 (human, UniProt P55285 54-790).
T1 construct: In p3×FLAG-CMV-9; also called EC5-deleted hCDH6
T1 sequence: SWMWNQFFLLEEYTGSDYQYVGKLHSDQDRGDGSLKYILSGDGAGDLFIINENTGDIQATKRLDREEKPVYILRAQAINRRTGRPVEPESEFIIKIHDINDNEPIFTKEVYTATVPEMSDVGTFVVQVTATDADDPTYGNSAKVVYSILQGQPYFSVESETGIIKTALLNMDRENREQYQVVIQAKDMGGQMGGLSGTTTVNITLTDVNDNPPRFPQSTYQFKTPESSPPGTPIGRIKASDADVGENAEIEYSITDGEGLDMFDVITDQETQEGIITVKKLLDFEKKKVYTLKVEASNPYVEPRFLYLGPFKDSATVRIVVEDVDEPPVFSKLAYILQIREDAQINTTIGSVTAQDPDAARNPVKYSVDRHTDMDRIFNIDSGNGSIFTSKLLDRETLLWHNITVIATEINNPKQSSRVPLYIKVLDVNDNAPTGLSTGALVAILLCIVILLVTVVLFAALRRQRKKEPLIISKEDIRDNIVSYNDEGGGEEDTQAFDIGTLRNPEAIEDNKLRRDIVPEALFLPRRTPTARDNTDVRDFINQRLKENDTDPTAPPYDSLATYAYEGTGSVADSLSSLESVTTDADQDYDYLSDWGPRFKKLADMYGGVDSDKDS
Description: flow cytometry; 293α cells transfected with EC5-deleted hCDH6 (open) vs untransfected control cells (shaded); APC anti-human IgG. As for the experimental part:
(§1) Thereafter, the cells were suspended by the addition of each of the 4 humanized hG019 antibodies (clone Nos: H01L02, H02L02, H02L03 and H04L02), which had been prepared in Example 5)-5-3, or the anti-CDH6 antibody NOV0712, which had been prepared in Reference Example 1, or human IgG1 (Calbiochem) as a negative control. The cells were left standing at 4° C. for 1 hour. The cells were washed twice with PBS supplemented with 5% FBS, and then suspended by the addition of APC-anti-human IgG goat F(ab′)2 (Jackson ImmunoResearch Laboratories, Inc.) that had been 500-fold diluted with PBS supplemented with 5% FBS. The cells were left standing at 4° C. for 1 hour. The cells were washed twice with PBS supplemented with 5% FBS, followed by detection using a flow cytometer (Canto II; BD Biosciences). The data was analyzed using FlowJo (Tree Star, Inc.). In the histograms of FIGS. 7-1 to 7-6, the abscissa depicts APC fluorescence intensity indicating the amount of the antibody bound, and the ordinate depicts cell count. […] Fluorescence intensity is enhanced when the antibody binds to full-length hCDH6 or each EC domain deletion mutant on cell surface. The human IgG1 control binds to none of the transfected cells.
(Flow cytometry measures light scatter and fluorescence of single cells or particles in a stream.)

For assay [2], the target named is T2, human CDH6 (full-length, on cells) (human, UniProt P55285 54-790).
T2 construct: also called hCDH6; full-length hCDH6
T2 sequence: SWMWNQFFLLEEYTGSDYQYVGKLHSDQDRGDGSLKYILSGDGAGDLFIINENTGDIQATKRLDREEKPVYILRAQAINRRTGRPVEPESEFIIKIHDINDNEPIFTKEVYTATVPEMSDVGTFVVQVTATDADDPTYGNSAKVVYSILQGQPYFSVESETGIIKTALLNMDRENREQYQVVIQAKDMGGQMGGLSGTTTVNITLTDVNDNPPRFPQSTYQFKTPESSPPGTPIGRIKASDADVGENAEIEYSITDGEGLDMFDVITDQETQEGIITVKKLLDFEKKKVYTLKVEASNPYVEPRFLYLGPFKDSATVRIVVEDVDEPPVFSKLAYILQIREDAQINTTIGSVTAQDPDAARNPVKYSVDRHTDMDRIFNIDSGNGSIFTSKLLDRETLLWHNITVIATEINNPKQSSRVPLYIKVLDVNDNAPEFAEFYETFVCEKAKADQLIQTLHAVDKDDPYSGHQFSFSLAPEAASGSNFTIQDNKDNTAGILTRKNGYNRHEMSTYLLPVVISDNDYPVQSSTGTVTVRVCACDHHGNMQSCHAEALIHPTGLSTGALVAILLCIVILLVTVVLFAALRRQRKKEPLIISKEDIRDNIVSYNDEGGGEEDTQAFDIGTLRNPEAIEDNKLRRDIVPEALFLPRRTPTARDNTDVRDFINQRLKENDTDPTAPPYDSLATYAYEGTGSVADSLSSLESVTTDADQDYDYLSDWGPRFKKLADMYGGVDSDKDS
Description: flow cytometry; 293α cells transfected with full-length hCDH6 (open) vs untransfected control cells (shaded); APC anti-human IgG. The protocol:
as §1, with “The cells were cultured overnight under conditions of 37° C. and 5% CO₂, and thereafter, a cell suspension was prepared. […] Thereafter,” for “Thereafter,”

Assay [3] addresses T2, human CDH6 (full-length, on cells). The assay is described as follows: flow cytometry, MFI vs antibody concentration; 293α cells transfected with pcDNA3.1-hCDH6; PE anti-human IgG Fcγ. The protocol:
(§2) The CDH6-binding activity of the human chimeric anti-CDH6 antibody chG019 purified in 4)-2 was confirmed by flow cytometry. […] The cells were cultured overnight under conditions of 37° C. and 5% CO₂, and thereafter, a cell suspension was prepared. chG019 was added to the suspension of each of these cells. The cells were left standing at 4° C. for 1 hour. Thereafter, the cells were washed twice with PBS supplemented with 5% FBS, and then suspended by the addition of PE-labeled F(ab′)2 Fragment anti-human IgG, Fcγ antibody (Jackson ImmunoResearch Laboratories, Inc.) that had been 500-fold diluted with PBS supplemented with 5% FBS. The cells were left standing at 4° C. for 1 hour. The cells were washed twice with PBS supplemented with 5% FBS, and then re-suspended in PBS supplemented with 5% FBS, followed by detection using a flow cytometer (Canto II; BD Biosciences). The data was analyzed using FlowJo (Tree Star, Inc.). […] In FIG. 5, the abscissa depicts antibody concentration, and the ordinate depicts the amount of the antibody bound, based on mean fluorescence intensity.

Assay [4] deals with T3, cynomolgus monkey CDH6 (on cells) (cynomolgus monkey, UniProt P55285 54-790 (human entry)).
T3 construct: Expressed from pcDNA3.1-cynoCDH6; also called cynoCDH6
T3 sequence: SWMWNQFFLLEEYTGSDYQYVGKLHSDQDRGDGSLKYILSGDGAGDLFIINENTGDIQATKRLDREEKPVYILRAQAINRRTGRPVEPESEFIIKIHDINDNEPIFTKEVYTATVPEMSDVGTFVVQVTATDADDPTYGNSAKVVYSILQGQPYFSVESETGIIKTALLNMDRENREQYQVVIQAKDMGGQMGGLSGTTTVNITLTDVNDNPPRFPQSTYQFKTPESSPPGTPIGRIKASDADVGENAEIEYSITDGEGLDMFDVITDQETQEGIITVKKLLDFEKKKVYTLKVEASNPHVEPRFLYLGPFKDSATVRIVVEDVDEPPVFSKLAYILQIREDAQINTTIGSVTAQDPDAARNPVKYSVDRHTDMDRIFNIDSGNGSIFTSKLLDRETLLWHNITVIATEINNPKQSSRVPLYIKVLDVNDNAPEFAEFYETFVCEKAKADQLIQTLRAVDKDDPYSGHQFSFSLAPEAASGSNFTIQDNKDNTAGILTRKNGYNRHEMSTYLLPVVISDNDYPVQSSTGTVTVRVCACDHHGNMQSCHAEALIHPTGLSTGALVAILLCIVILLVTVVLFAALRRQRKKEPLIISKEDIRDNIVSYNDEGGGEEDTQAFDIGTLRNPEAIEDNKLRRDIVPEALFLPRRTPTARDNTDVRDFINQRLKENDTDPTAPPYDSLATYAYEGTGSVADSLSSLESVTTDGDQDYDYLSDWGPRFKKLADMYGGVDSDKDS
The assay is described as follows: flow cytometry, MFI vs antibody concentration; 293α cells transfected with pcDNA3.1-cynoCDH6; PE anti-human IgG Fcγ. The protocol:
as §2

As usually defined, the EC50 (read off the curve) is the concentration needed to bring the measured effect to its halfway point.

B1: anti-CDH6 antibody NOV0712 (antibody, V domains shown)
VH: QVQLLESGGGLVQPGGSLRLSCAASGFTFSSHGMHWVRQAPGKGLEWVSVISGSGSNTGYADSVKGRFTISRDNSKNTLYLQMNSLRAEDTAVYYCARQWGSYAFDSWGQGTLVTVSS
VL: DIQMTQSPSSLSASVGDRVTITCRASQSISSYLNWYQQKPGKAPKLLIYAVSTLQSGVPSRFSGSGSGTDFTLTISSLQPEDFATYYCQQSGTFPPTTFGQGTKVEIKR
notes: also called NOV0712 antibody; labeled NOV0712
Turning to B1, the binding result in assay [1] is reported as “no binding (tested: not given (single concentration))”; in assay [2] it was “binds”.

B2: human chimeric anti-CDH6 antibody chG019 (antibody, human IgG1)
heavy: not shown
light: DIQMTQSPSLLSASVGDRVTLNCKASQNIYKNLAWYQQKLGEGPKLLIYDANTLQTGIPSRFSGSGSGSDFTLTISSLQPEDVATYFCQQYYSGWAFGGVTNLELKRAVAAPSVFIFPPSDEQLKSGTASVVCLLNNFYPREAKVQWKVDNALQSGNSQESVTEQDSKDSTYSLSSTLTLSKADYEKHKVYACEVTHQGLSSPVTKSFNRGEC
notes: Human IgG1/kappa chimera; also called chG019 antibody; chimeric G019 antibody
For the molecule B2, the “EC50 (read off the curve)” value in assay [3] and in assay [4] was about 0.01 µg/mL in each case.
